Assay results as given in patent US20080009025A1, “PROTEIN KINASE REGULATION” (priority 1999, published 2008).

T1: GST-PDK1 (Homo sapiens, UniProt O15530)
T1 construct: Full length PDK1 (residues 1-556); made in house; host or cells: 293 cells
T1 sequence (O15530 1-556): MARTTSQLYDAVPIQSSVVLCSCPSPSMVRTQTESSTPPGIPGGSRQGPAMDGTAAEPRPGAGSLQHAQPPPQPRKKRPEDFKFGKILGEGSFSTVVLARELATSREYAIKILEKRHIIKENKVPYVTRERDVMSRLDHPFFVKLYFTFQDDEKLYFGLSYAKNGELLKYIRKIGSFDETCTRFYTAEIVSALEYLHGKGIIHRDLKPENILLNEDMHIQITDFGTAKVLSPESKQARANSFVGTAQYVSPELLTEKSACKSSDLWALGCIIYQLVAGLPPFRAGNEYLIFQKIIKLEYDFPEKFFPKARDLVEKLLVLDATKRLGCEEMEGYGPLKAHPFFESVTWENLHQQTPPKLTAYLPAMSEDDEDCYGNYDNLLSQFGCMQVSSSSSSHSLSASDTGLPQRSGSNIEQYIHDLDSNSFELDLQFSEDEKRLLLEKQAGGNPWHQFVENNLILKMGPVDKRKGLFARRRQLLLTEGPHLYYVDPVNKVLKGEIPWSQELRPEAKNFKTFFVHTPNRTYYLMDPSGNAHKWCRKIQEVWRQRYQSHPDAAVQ


Key:
GST-PDK1 = molecular target: T1, GST-PDK1; assay: Thermal denaturation of PDK1 (TM50); type: biochemical; conditions: heated 2 min; no PIFtide
Source text: A further aspect of the invention provides the use of an interacting polypeptide as defined above, for example comprising the amino acid sequence Phe/Tyr-Xaa-Xaa-Phe/Tyr or an interacting compound of the invention in a method of stabilising a protein kinase having a hydrophobic pocket in the position equivalent to the hydrophobic pocket of Protein Kinase A (PKA) that is defined by residues including Lys76, Leu116, Val80 and/or Lys111 of full-length mouse PKA, wherein the protein kinase is exposed to the compound or polypeptide. Stabilisation may be measured by measuring the TM50 value. The TM50 value is the temperature at which heating for two minutes produces a 50% reduction in protein kinase activity (measured using any appropriate substrate) compared with the protein kinase activity before such heating, as described in Example 2. An increase in the TM50 value, for example by at least about 1, 2, 3, 4, 5, 6, 7, 8, 9, 10 or 15° C. indicates stabilisation.
FIG. 12. PDK1 is activated and stabilised through its interaction with PIFtide. (A) GST-PDK1 activity was measured in the presence of increasing concentrations of wild type (wt) PIFtide (closed circles) or a mutant D978A PIFtide (open circles) using the synthetic peptide substrate termed T308tide, as described in Material and Methods. The data was fitted to a hyperbola using the Kaleidagraph™ software. […]

S6K1[412E] = assay: Activation of S6K1[412E] by PDK1 PIF pocket mutants; type: biochemical, human
Experimental: (§1) FIG. 20. Effect of PIFtide on the activation of S6K1 and SGK1 by PDK1 PIF pocket mutants (155A, 115A, 119A, 150A). GST-PDK1, GST-PDK1 L155E, 155A, 115A, 119A and 150A were tested for their ability to activate His-S6K1 412E and GST-SGK1 422D. The phosphorylation and activation of substrates was performed as described in FIG. 17. When PIFtide was included in the reaction, it was pre-incubated on ice for ˜15 min until the reaction was initiated with the addition of ATP-Mg.
(§2) Activation of AGC kinase PDK1 substrates. Phosphorylation reactions were carried out as above except that non-radioactive ATP replaced [γ-^32P]ATP. Following 10 min at 30° C., cocktail (30 μl) containing 50 mM Tris-HCl pH 7.5, 0.1% (by vol) 2-mercaptoethanol, 10 mM magnesium chloride, […], 0.5 μM microcystin-LR and 100 μM peptide substrate crosstide (GRPRTSSFAEG) and [γ-^32P]ATP (˜600 c.p.m./pmol). Reactions were stopped by the addition of 25 μl of 0.2 M EDTA pH 8.0, spotted onto P81 phosphocellulose paper, washed and analysed as described for the assay of MAP kinase. The amount of PDK1 was in the assay was varied so that the assay was in the linear range. One unit of activity is deficed as phosphorylation 1 nmol of substrate in 1 min.

SGK1[T422D] = assay: Activation of SGK1[T422D] by PDK1 PIF pocket mutants; type: biochemical
Experimental: as §1, §2

Molecule	TM50 value (GST-PDK1)	rate of activation of S6K1[412E] compared with wild type PDK1 (S6K1[412E])	rate of activation of SGK1[T422D] compared with wild type PDK1 (SGK1[T422D])
L155D: PDK1 mutant, Leu155 to Asp (protein, left off: small tags and cut ends, PDK1 mutant, Leu155 to Asp) MARTTSQLYDAVPIQSSVVLCSCPSPSMVRTQTESSTPPGIPGGSRQGPAMDGTAAEPRPGAGSLQHAQPPPQPRKKRPEDFKFGKILGEGSFSTVVLARELATSREYAIKILEKRHIIKENKVPYVTRERDVMSRLDHPFFVKLYFTFQDDEKDYFGLSYAKNGELLKYIRKIGSFDETCTRFYTAEIVSALEYLHGKGIIHRDLKPENILLNEDMHIQITDFGTAKVLSPESKQARANSFVGTAQYVSPELLTEKSACKSSDLWALGCIIYQLVAGLPPFRAGNEYLIFQKIIKLEYDFPEKFFPKARDLVEKLLVLDATKRLGCEEMEGYGPLKAHPFFESVTWENLHQQTPPKLTAYLPAMSEDDEDCYGNYDNLLSQFGCMQVSSSSSSHSLSASDTGLPQRSGSNIEQYIHDLDSNSFELDLQFSEDEKRLLLEKQAGGNPWHQFVENNLILKMGPVDKRKGLFARRRQLLLTEGPHLYYVDPVNKVLKGEIPWSQELRPEAKNFKTFFVHTPNRTYYLMDPSGNAHKWCRKIQEVWRQRYQSHPDAAVQ	42 °C	–	–
I119A: PDK1 mutant, Ile119 to Ala (protein, left off: small tags and cut ends, PDK1 mutant, Ile119 to Ala) MARTTSQLYDAVPIQSSVVLCSCPSPSMVRTQTESSTPPGIPGGSRQGPAMDGTAAEPRPGAGSLQHAQPPPQPRKKRPEDFKFGKILGEGSFSTVVLARELATSREYAIKILEKRHIAKENKVPYVTRERDVMSRLDHPFFVKLYFTFQDDEKLYFGLSYAKNGELLKYIRKIGSFDETCTRFYTAEIVSALEYLHGKGIIHRDLKPENILLNEDMHIQITDFGTAKVLSPESKQARANSFVGTAQYVSPELLTEKSACKSSDLWALGCIIYQLVAGLPPFRAGNEYLIFQKIIKLEYDFPEKFFPKARDLVEKLLVLDATKRLGCEEMEGYGPLKAHPFFESVTWENLHQQTPPKLTAYLPAMSEDDEDCYGNYDNLLSQFGCMQVSSSSSSHSLSASDTGLPQRSGSNIEQYIHDLDSNSFELDLQFSEDEKRLLLEKQAGGNPWHQFVENNLILKMGPVDKRKGLFARRRQLLLTEGPHLYYVDPVNKVLKGEIPWSQELRPEAKNFKTFFVHTPNRTYYLMDPSGNAHKWCRKIQEVWRQRYQSHPDAAVQ	–	only marginally lower	markedly reduced
K115A: PDK1 mutant, Lys115 to Ala in the PIF-binding pocket (protein, left off: small tags and cut ends) MARTTSQLYDAVPIQSSVVLCSCPSPSMVRTQTESSTPPGIPGGSRQGPAMDGTAAEPRPGAGSLQHAQPPPQPRKKRPEDFKFGKILGEGSFSTVVLARELATSREYAIKILEARHIIKENKVPYVTRERDVMSRLDHPFFVKLYFTFQDDEKLYFGLSYAKNGELLKYIRKIGSFDETCTRFYTAEIVSALEYLHGKGIIHRDLKPENILLNEDMHIQITDFGTAKVLSPESKQARANSFVGTAQYVSPELLTEKSACKSSDLWALGCIIYQLVAGLPPFRAGNEYLIFQKIIKLEYDFPEKFFPKARDLVEKLLVLDATKRLGCEEMEGYGPLKAHPFFESVTWENLHQQTPPKLTAYLPAMSEDDEDCYGNYDNLLSQFGCMQVSSSSSSHSLSASDTGLPQRSGSNIEQYIHDLDSNSFELDLQFSEDEKRLLLEKQAGGNPWHQFVENNLILKMGPVDKRKGLFARRRQLLLTEGPHLYYVDPVNKVLKGEIPWSQELRPEAKNFKTFFVHTPNRTYYLMDPSGNAHKWCRKIQEVWRQRYQSHPDAAVQ	–	only marginally lower	markedly reduced
L155A: PDK1 mutant, Leu155 to Ala (protein, left off: a dimerising Fc or GST; small tags and cut ends, PDK1 mutant, Leu155 to Ala) MARTTSQLYDAVPIQSSVVLCSCPSPSMVRTQTESSTPPGIPGGSRQGPAMDGTAAEPRPGAGSLQHAQPPPQPRKKRPEDFKFGKILGEGSFSTVVLARELATSREYAIKILEKRHIIKENKVPYVTRERDVMSRLDHPFFVKLYFTFQDDEKAYFGLSYAKNGELLKYIRKIGSFDETCTRFYTAEIVSALEYLHGKGIIHRDLKPENILLNEDMHIQITDFGTAKVLSPESKQARANSFVGTAQYVSPELLTEKSACKSSDLWALGCIIYQLVAGLPPFRAGNEYLIFQKIIKLEYDFPEKFFPKARDLVEKLLVLDATKRLGCEEMEGYGPLKAHPFFESVTWENLHQQTPPKLTAYLPAMSEDDEDCYGNYDNLLSQFGCMQVSSSSSSHSLSASDTGLPQRSGSNIEQYIHDLDSNSFELDLQFSEDEKRLLLEKQAGGNPWHQFVENNLILKMGPVDKRKGLFARRRQLLLTEGPHLYYVDPVNKVLKGEIPWSQELRPEAKNFKTFFVHTPNRTYYLMDPSGNAHKWCRKIQEVWRQRYQSHPDAAVQ	–	only marginally lower	markedly reduced
Q150A: PDK1 mutant, Gln150 to Ala (protein, left off: small tags and cut ends, PDK1 mutant, Gln150 to Ala) MARTTSQLYDAVPIQSSVVLCSCPSPSMVRTQTESSTPPGIPGGSRQGPAMDGTAAEPRPGAGSLQHAQPPPQPRKKRPEDFKFGKILGEGSFSTVVLARELATSREYAIKILEKRHIIKENKVPYVTRERDVMSRLDHPFFVKLYFTFADDEKLYFGLSYAKNGELLKYIRKIGSFDETCTRFYTAEIVSALEYLHGKGIIHRDLKPENILLNEDMHIQITDFGTAKVLSPESKQARANSFVGTAQYVSPELLTEKSACKSSDLWALGCIIYQLVAGLPPFRAGNEYLIFQKIIKLEYDFPEKFFPKARDLVEKLLVLDATKRLGCEEMEGYGPLKAHPFFESVTWENLHQQTPPKLTAYLPAMSEDDEDCYGNYDNLLSQFGCMQVSSSSSSHSLSASDTGLPQRSGSNIEQYIHDLDSNSFELDLQFSEDEKRLLLEKQAGGNPWHQFVENNLILKMGPVDKRKGLFARRRQLLLTEGPHLYYVDPVNKVLKGEIPWSQELRPEAKNFKTFFVHTPNRTYYLMDPSGNAHKWCRKIQEVWRQRYQSHPDAAVQ	–	only marginally lower	markedly reduced
